Laboratory results from patent publication US20020028202A1 (Biogen, published 2002).

Legend:
[1] = target: T1, human gc chain mutant, SAQ replaced by Ala (Domain 2 Loop FQ), myc-tagged, on COS-7 cells (human, UniProt P31785 23-369); test: staining of transfected COS-7 cells, FACS
T1 construct: whole, on cells; not shown: 9 amino acid myc tag at the 5' end of the construct
T1 sequence (looked up): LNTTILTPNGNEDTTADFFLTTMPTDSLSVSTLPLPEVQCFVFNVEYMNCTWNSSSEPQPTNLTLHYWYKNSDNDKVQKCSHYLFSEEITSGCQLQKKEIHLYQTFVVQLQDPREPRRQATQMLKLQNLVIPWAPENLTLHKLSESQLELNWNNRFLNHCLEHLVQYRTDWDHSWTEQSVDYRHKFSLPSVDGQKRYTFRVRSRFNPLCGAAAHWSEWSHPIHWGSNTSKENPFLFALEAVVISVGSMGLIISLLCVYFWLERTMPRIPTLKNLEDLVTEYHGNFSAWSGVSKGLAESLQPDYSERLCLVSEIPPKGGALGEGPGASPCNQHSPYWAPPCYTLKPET
Description: (§1) COS-7 cells are transiently transfected with 20 ug of DNA encoding the gc chain mutant or wildtype cDNA and 180 ug of herring sperm carrier DNA. After 2-3 days, COS-7 cells are harvested and analyzed by immnunofluorescent staining with anti-gc chain mAbs. MAbs are used at 10 ug/ml in PBS-1% BSA-0.02% sodium azide and allowed 30 minutes to bind to 1×10⁶ COS-7 cells. Cells are then washed 2 times, and bound mAb is detected with PE-conjugated goat anti-mouse Fc specific antibodies. The % of positive cells staining with the anti-gc chain mAb over an irrelevant control Ig is determined for a given gc chain mutant and for wildtype gc chain. […] Data are adjusted for any differences in level of expression of a mutant vs. wildtype constructs by measuring the binding of a mAb specific for a 9 amino acid myc tag engineered at the 5′ end of each gc chain construct. […] Values reduced from 100% indicate amino acid mutations which affect mAb binding.
(§2) The value “100%” indicates no effect of mutation and lower percentages indicate greater losses in binding as a result of the sequence change.

[2] = target: T2, human gc chain mutant, LNH replaced by Ala (Domain 2 Loop BC), myc-tagged, on COS-7 cells (human, UniProt P31785 23-369); test: staining of transfected COS-7 cells, FACS
T2 construct: whole, on cells; not shown: 9 amino acid myc tag at the 5' end of the construct
T2 sequence (looked up): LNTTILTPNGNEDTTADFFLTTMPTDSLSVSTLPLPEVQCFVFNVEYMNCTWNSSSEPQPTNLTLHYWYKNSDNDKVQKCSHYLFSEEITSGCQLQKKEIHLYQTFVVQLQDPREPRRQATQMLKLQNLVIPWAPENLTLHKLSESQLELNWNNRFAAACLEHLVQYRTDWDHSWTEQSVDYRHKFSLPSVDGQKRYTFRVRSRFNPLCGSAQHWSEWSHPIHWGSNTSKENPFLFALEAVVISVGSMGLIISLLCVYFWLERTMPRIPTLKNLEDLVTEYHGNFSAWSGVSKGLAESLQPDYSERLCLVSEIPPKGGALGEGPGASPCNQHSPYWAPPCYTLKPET
Description: as §1, §2

[3] = target: T3, human gc chain mutant, LEH replaced by Ala (Domain 2 Loop BC), myc-tagged, on COS-7 cells (human, UniProt P31785 23-369); test: staining of transfected COS-7 cells, FACS
T3 construct: whole, on cells; not shown: 9 amino acid myc tag at the 5' end of the construct
T3 sequence (looked up): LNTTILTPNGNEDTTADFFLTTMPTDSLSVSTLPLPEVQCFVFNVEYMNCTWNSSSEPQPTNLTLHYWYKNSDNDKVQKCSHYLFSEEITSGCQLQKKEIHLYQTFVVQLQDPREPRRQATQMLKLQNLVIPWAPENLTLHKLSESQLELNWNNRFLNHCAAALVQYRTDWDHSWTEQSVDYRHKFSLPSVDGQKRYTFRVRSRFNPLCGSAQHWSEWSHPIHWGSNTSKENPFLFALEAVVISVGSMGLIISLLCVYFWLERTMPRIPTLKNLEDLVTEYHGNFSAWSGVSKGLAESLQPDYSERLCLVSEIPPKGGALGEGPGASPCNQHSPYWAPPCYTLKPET
Description: as §1, §2

[4] = target: T4, human gc chain mutant, KEI replaced by Ala (Domain 1 Loop EF), myc-tagged, on COS-7 cells (human, UniProt P31785 23-369); test: staining of transfected COS-7 cells, FACS
T4 construct: whole, on cells; not shown: 9 amino acid myc tag at the 5' end of the construct
T4 sequence (looked up): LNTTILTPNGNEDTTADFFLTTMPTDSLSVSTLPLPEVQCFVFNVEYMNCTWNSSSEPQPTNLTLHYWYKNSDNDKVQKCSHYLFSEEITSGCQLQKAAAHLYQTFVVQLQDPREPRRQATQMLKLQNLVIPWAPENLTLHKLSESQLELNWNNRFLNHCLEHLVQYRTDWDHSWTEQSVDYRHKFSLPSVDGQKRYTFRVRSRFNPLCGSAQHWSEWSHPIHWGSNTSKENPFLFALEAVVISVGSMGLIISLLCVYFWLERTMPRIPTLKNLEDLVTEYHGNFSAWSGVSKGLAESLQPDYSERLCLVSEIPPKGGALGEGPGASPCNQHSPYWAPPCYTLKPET
Description: as §1, §2

[5] = target: T5, human gc chain mutant, NDK replaced by Ala (Domain 1 Loop CC), myc-tagged, on COS-7 cells (human, UniProt P31785 23-369); test: staining of transfected COS-7 cells, FACS
T5 construct: whole, on cells; not shown: 9 amino acid myc tag at the 5' end of the construct
T5 sequence (looked up): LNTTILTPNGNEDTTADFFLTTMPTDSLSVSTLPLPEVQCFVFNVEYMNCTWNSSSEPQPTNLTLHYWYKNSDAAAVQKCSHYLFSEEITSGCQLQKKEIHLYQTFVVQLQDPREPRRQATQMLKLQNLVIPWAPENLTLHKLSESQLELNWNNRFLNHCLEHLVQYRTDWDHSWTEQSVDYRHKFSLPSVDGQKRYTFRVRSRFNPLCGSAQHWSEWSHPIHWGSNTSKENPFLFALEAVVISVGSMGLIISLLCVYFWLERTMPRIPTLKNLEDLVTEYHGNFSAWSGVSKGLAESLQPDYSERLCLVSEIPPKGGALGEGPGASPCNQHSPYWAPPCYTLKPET
Description: as §1, §2

[6] = target: T6, human gc chain (common gamma chain of cytokine receptors) on the cell surface (human, UniProt P31785 23-369); test: cell-based or functional assay
T6 sequence (looked up): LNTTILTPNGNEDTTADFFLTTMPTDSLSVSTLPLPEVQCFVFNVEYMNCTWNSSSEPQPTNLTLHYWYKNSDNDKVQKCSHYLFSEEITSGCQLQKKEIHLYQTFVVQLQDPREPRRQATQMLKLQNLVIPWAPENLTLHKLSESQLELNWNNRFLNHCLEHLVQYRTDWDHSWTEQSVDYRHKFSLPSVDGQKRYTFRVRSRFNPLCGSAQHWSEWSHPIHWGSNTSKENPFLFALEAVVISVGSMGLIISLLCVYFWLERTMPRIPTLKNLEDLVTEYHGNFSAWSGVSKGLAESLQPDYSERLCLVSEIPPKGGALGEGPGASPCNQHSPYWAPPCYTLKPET

% binding to mutant gc chain/wildtype gc chain [1]: 111%
% binding to mutant gc chain/wildtype gc chain [2]: 88%
% binding to mutant gc chain/wildtype gc chain [3]: 0%
% binding to mutant gc chain/wildtype gc chain [4]: 2%
% binding to mutant gc chain/wildtype gc chain [5]: 71%
inhibition of IL-2-induced T cell proliferation, 73 pM IL-2, mAb at 100 ug/ml, relative to MOPC21 [6]: 51%
inhibition of IL-2-induced T cell proliferation, 219 pM IL-2, mAb at 100 ug/ml, relative to MOPC21 [6]: 44%
B1: CP.B8 monoclonal antibody (murine anti-human gc chain, hybridoma ATCC HB-12107) (antibody, V domains shown)
VH: LQESGPGLVAPSQSLSITCTVSGFSLTSYGVHWVRQPPGKGLEWLGVIWAGGSTNYNSALMSRLNINRDNSKSQIFLKMNSLQTDDTAIYYCAREGSTVDSMDYWGQGTTVT
VL: DIVMTQSHKFMSTSVGDSITITCKASQDVTTAVAWYQQKPGQSPKLLIYWASTRHTGVPDRFTGSGSGTDYTLTISSVQAEDLALYYCQQHYITPWTFGGGTKLEI
notes: Used unconjugated and biotin-conjugated; also called CP.B8 mAb; mAb CP.B8
